# From paper PMC3745449
# Assays:
# [1] = target: His6-tagged N-terminal domain of turkey pancreatic lipase (turkey)
# [2] = target: His6-tagged N-terminal domain of turkey pancreatic lipase (turkey); remark: listed apart in the source
substance,measurement,setting,value
Turkey colipase (natural protein),increase of N-TPL lipase activity on tributyrin (TC4) when colipase is present in the hydrolysis medium,[1],15%
same,"time for which N-TPL stays active in tributyrin (TC4) hydrolysis (pH-Stat, pH 8.5, 37°C) with colipase; without colipase the activity is lost after 3 min",[2],> 8 min
